A word on the Kd: it is a measure of binding affinity in units of concentration.

This note sets out measurements from publication PMC12489474, “New structural insights into the control of the retinoic acid receptors RAR/RXR by DNA, ligands, and transcriptional coregulators” (Nucleic Acids Research, 2025).

Series [1] deals with T1, RAR/RXR heterodimer (RARAΔABF with RXRAΔAB) (mouse (printed as MmRARAΔABF; the same …, UniProt P11416 82-421; P19793 126-462).
T1 construct: retinoic acid receptor alpha, residues 82-421 of Uniprot entry P11416; as the chain of m1; as the chain of m2; 1:1 heterodimer by SEC-MALS; this is told in the format of each assay; also called RR–DR0; source: E. coli BL21 (DE3); RAR and RXR purified separately, mixed (2-fold excess of RAR), heterodimer purified by SEC (Superdex 200); not shown: His6, N-terminal, cleaved
T1 sequence (looked up) 1: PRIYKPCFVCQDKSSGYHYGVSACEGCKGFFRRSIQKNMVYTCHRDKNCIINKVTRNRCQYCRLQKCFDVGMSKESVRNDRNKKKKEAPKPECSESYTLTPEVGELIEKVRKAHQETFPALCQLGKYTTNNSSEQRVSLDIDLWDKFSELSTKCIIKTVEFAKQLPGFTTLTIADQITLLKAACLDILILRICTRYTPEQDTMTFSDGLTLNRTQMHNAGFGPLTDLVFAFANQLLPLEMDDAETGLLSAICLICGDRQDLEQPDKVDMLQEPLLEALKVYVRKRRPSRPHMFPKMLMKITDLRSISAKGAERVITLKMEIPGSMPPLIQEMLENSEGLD
T1 sequence (looked up) 2: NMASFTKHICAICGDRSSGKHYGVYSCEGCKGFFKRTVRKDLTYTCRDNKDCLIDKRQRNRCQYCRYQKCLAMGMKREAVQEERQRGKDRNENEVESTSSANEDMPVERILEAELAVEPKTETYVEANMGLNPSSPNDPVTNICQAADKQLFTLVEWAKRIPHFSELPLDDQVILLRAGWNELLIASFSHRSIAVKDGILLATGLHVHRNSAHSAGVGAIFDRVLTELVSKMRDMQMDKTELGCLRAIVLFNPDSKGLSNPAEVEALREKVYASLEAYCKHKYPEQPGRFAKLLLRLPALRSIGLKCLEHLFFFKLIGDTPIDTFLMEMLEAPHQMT
As to the kind of experiment: MST; RAR/RXR without DNA, no ligand (apo); heterodimer in 2-fold serial dilution from 20 μM, added to an equal volume of 80 nM Atto647N-NCoRNID; 20 mM Tris–HCl pH 7.5, 75 mM NaCl, 75 mM KCl, 2 mM CHAPS, 4 mM MgCl2, 5% glycerol, 0.05% Tween-20; 22°C. The conditions noted are these: both partners purified.

The target in series [2] is T1, RAR/RXR heterodimer (RARAΔABF with …). As to the kind of experiment: MST; RAR/RXR bound to DR5 DNA (RR–DR5), no ligand (apo); heterodimer titrated against labelled NCoRNID; same buffer, 22°C. The conditions noted are these: both partners purified.
Series [3] has the same target. As to the kind of experiment: MST; RR–DR1 with BMS493; heterodimer titrated against labelled NCoRNID; same buffer, 22°C. The conditions noted are these: both partners purified.
Series [4] has the same target. Kind of series: MST; RAR/RXR bound to IR0 DNA (RR–IR0), no ligand (apo); heterodimer titrated against labelled NCoRNID; same buffer, 22°C. The conditions noted are these: both partners purified.
Series [5] shares this target. As to the kind of experiment: MST; RR–IR0 with BMS493; heterodimer titrated against labelled NCoRNID; same buffer, 22°C. The conditions noted are these: both partners purified.
The target is the same in series [6]. As to the kind of experiment: MST; RR–DR1 with the agonists AM580 + CD3254; heterodimer titrated against labelled NCoRNID; same buffer, 22°C. The conditions noted are these: both partners purified.
The target is the same in series [7]. As to the kind of experiment: MST; RR–DR5 with BMS493; heterodimer titrated against labelled NCoRNID; same buffer, 22°C. The conditions noted are these: both partners purified.
The target is the same in series [8]. As to the kind of experiment: MST; RAR/RXR without DNA, with BMS493; heterodimer titrated against labelled NCoRNID; same buffer, 22°C. The conditions noted are these: both partners purified.
The target is the same in series [9]. Kind of series: MST; RAR/RXR bound to DR1 DNA (RR–DR1), no ligand (apo); heterodimer titrated against labelled NCoRNID; same buffer, 22°C. The conditions noted are these: both partners purified.
Series [10] shares this target. Kind of series: MST; RAR/RXR bound to DR0 DNA (RR–DR0), no ligand (apo); heterodimer titrated against labelled NCoRNID; same buffer, 22°C. The conditions noted are these: both partners purified.
The target is the same in series [11]. As to the kind of experiment: MST; RR–DR0 with BMS493; heterodimer titrated against labelled NCoRNID; same buffer, 22°C. The conditions noted are these: both partners purified.
The target of series [12] is RARalpha dAB dF;RXRalpha dAB (Mus musculus / Homo sapiens (Methods …, UniProt P11416;P19793 82-421;126-462, |)). As to the kind of experiment: SEC-SAXS; apo; Fluorescence anisotropy: 20 mM Tris-HCl pH 7.5, 75 mM NaCl, 75 mM KCl, 2 mM CHAPS, 4 mM MgCl2, 2 mM TCEP, 10% glycerol, 0.5 nM Cy5-DNA, 4 uM ligands, 294 K. The conditions noted are these: protein: recombinant;recombinant; tags: N-terminal His6 (pET15b); copies: 1;1; blunt. Background: SEC sorts molecules by how far they enter the pores of the column.

Series [13] has as its target RARalpha dAB dF;RXRalpha dAB;NCoR NID (Mus musculus / Homo sapiens (Methods …, UniProt P11416;P19793;Q60974 82-421;126-462;2059-2325, ||)). Kind of series: SEC-SAXS; BMS493; Fluorescence anisotropy: 20 mM Tris-HCl pH 7.5, 75 mM NaCl, 75 mM KCl, 2 mM CHAPS, 4 mM MgCl2, 2 mM TCEP, 10% glycerol, 0.5 nM Cy5-DNA, 4 uM ligands, 294 K. The conditions noted are these: protein: recombinant;recombinant;recombinant; tags: N-terminal His6 (pET15b); copies: 1;1;1; blunt.

B1: Atto647N-labeled NCoRNID (domain or fragment, UniProt Q60974 2059-2325, looked up)
chain: QVPRTHRLITLADHICQIITQDFARNQVPSQASTSTFQTSPSALSSTPVRTKTSSRYSPESQSQTVLHPRPGPRVSPENLVDKSRGSRPGKSPERSHIPSEPYEPISPPQGPAVHEKQDSMLLLSQRGVDPAEQRSDSRSPGSISYLPSFFTKLESTSPMVKSKKQEIFRKLNSSGGGDSDMAAAQPGTEIFNLPAVTTSGAVSSRSHSFADPASNLGLEDIIRKALMGSFDDKVEDHGVVMSHPVGIMPGSASTSVVTSSEARRDE
modifications: Atto647N label (site not stated)
With B1, the Kd in series [1] turned out to be 490 nM; in series [2], 283 nM; in series [3] it was 499 nM; in [4], 289 nM; in series [5] it was 289 nM; in series [6], 5300 nM. Further, the Kd in series [7] stood at 335 nM; in [8] it was 368 nM; in series [9], 531 nM; in series [10], 414 nM; in [11], 244 nM.

B2: DR0L Hoxb13 (dsDNA)
DNA 1: CTTCCAGGAAGGTCAAGGCCAAGTTGAAAG
DNA 2: CTTTCAACTTGGCCTTGACCTTCCTGGAAG
Consider B2, for which the binding result in series [12] and in series [13] was “binds” throughout.
